Series [1] deals with Q2XVP4. In words: cryo-EM structure; single-particle cryo-EM of porcine tubulin incubated with GDP on ice, peak fraction of gel filtration (Superdex 200 Increase 3.2/300), 1-2 μM on graphene grids, no cofactors or depolymerizing reagents; heterodimer maps at 3.6 Å and 3.9 Å; tetramers by 2D and 3D classification …. For orientation: SEC sorts molecules by how far they enter the pores of the column.

Series [2] has as its system Q2XVP4. The series can be described thus: cryo-EM structure; single-particle cryo-EM of porcine tubulin (5 mg/ml) incubated with 1.5 mM GMPCPP on ice for 20-30 min, peak fraction of gel filtration (Superdex 200 Increase 3.2/300), 1-2 μM on graphene grids, no cofactors or depolymerizing reagents; heterodimer map at 3.5 Å; tetramers by 2D ….

Results on one substance are retold here after publication PMC10519996.

For the substance porcine αβ-tubulin heterodimer, in the series on Q2XVP4 [1], the “percent of the particles per micrograph that are tubulin hexamers (three heterodimers)” value is 62%, 32%, and 6%; the “percent of the particles per micrograph that are tubulin tetramers (two heterodimers)” value was 62%, 32%, and 6%. In addition, in the series with Q2XVP4 [2], the “percent of the particles per micrograph that are tubulin hexamers (three heterodimers)” value is 64%, 29%, and 7%; the “percent of the particles per micrograph that are tubulin tetramers (two heterodimers)” value was 64%, 29%, and 7%.
